Experiments:
[1] = target: DENV3 envelope (E) glycoprotein, strain Phillippines/16562/1964 (Dengue virus serotype 3); experiment: live-virus capture ELISA
[2] = target: DENV3 envelope (E) glycoprotein, wildtype DENV3 (strain not named at the place) (Dengue virus serotype 3)
[3] = target: DENV1 envelope (E) glycoprotein, strain Nauru/West Pac/1974 (Dengue virus serotype 1, UniProt P17763); experiment: cell-based or functional assay

Binder | EC50 [1] | FRNT EC50, Vero-81 [2] | FRNT EC50, Vero-81 (WUSTL) [3]
DENV-419 (antibody, V domains shown) VH: EMQLQESGPRLVKPSQTLSLTCTVSGGSTSSGGYYWSWFRQYPEKGLEWIGYIFSSVTTYYNPPLKSRVTISVDTSKNQFSLKLSSVTAADTAVYYCARSLHYYQSSGFLYWGRGIPVTVSA VL: EIVLTQSPATLSLSPGDRATLSCRASQTVGDSLAWYQQKPGQAPRLLIYDVSNRATGIPARFSGSGSGTDFTLTISSLEPEDFAVYYCQQRASFVTFGRGTKVDIK | 0.0444 µg/mL | < 0.035 µg/mL | –
DENV-144 (antibody, V domains shown) VH: QVQLQESGPGLVKPSETLSLTCTVSGASISSYSWSWIRQPAGRGLEWLGRIYPSGNTNYSPSLKSRLTMSLDTSKNQFSMKLTSVSAADTAVYYCARDREQWPLYYGMDVWGQGTLVTVSS VL: EIVLTQSPAILSLSPGDRATLSCRASQSVFTYLAWYQHKPGQAPRLLIYDASNRASGIPARFSGSGSGTDFTLTISSLEPEDFAVYYCQQRTKWPLAFGGGTKVEIK | – | – | 329 ng/mL
